Patent US20250027068
Numbering of substitutions follows the chain as printed.

B1: PRT-76 (protein)
chain: MANQEIRYSEVTPYHITSVWTKGVTPPAKFTQGEDVFHAPYVANQGWYDITKTFNGKDDLLCGAATAGNMLHWWFDQNKEEIEAYLKKHPEKQKIMFGDQELLDVRKVINTKDSQTNSALFNYFKDKAFPNLSARRLGVMPDLVLDMFINGYYLNVYKTQTTDVNRTYQTKDRRGGIFDAVFTRGDQSKLLTERHDFKEKTLKEISDLIKQELTEGKALGLSHTYANVRINHVINLWGADFDSNGNLEAIYVTDSDSNASIGMKKYFVGVNSAGKVAISAKEIKEDNIGAQVLGLFTLSTGQDIWNQTN
B2: PRT-77 (protein)
chain: MANQEIRYSEVTPYHVTSVWTKGVTPPTNFTQGEDVFHAPYVANQGWYDITKTFNGKDNLLCGAATAGNMLHWWFDQNKEEIERYLKKHPEKQKIMFGDQELLDVRKVINTKDDQKNSELFNYFRDKAFPGLSARRLGVMPDLVLDMFINGYYLNVGKTQTTDVNRTYQEKDKRGGIFDAVFTRGDQSKLLTSRHDFKEKNLKEISDLIKQELTEGKALGLSHTYANVRINHVINLWGADFDSNGNLEAIYVTDSDSNASIGMKKYFVGVNSAGKVAISAKEIEEDNIGAQVLGLFTLSTGQDIWNQTN
B3: PRT-78 (protein)
chain: MANQEIRYSEETPYHVTSVWTKGVTPPADFTQGEDVFHAPYVANQGWYDITKTFNGKDDLLCGAATAGNMLHWWFDQNKEYIEAYLKKHPEKQKIMFGDQELLDVRKAINTKGSQKNSELFNYFRDKAFPNLSARRLGVMPDLVLDMFINGYYLNVTKTQTTDVNRTYQEKDKRGGIFDAVFTRGDQSKLLTSRHDFKEKGLKEISDLIKQELTEGKALGLSHTYANVRINHVINLWGADFDSDGNLKAIYVTDSDSNASIGMKKYFVGVNSAGKVAISAKEIKEDNIGAQVLGLFTLSTGQDIWNQTN
B4: PRT-79 (protein)
chain: MANQEIRYSEVTPKTITSVWTKGVTPPAKFTQNEDVFHAPYVANQGWYDITKTFNGKDDLLCGAATAGNMLHWWFDQNKEQIEAYLKKHPEKQKIMFGDQELLDVRKVINTKDDQTNSELFNYFKDKAFPNLSARRLGVMPDLVLDMFINGYRLNVGKTQTTDVNRTYQDKDPRGGIFDAVFTRGDQSKLLTSRHDFKEKNLKEISDLIKQELTEGKALGLSHTYANVRINHVINLWGADFDSEGNLEAIYVTDSDSNASIGMKKYFVGVNSAGKVAISAKEIEEDNIGAQVLGLFTLSTGQDIWEQTN
B5: PRT-80 (protein)
chain: MANQEIRYSEVTPKHITSVWTKGVTPPTQFIQGEDVFHAPYKANQGWYDITKTFNGKDDLLCGAATAGNMLHWWFDQNKEEIEAYLKKHPEKQKIMFGDQELLDVRKAINTKDDQTNSELFNYFRDKAFPNLSARRLGVMPDHVLDMFINGYYLNVNKTQTTDVNRTYQEKDPRGGIFDAVFTRGDQSKLLTSRHDFKEKTLKEISDLIKQELTEGKALGLSHTYANVRINHVINLWGADFDSNGNLKAIYVTDSDSDASIGMKKYFVGVNSAGKVAISAKEIKGDNIGAQVLGLFTLSTGQDIWNQTN
B6: PRT-6 (protein)
chain: MANQEIRYSEVTPYHVTSVWTKGVTPPANFTQGEDVFHAPYVANQGWYDITKTFNGKDDLLCGAATAGNMLHWWFDQNKEQIERYLKEHPEKQKINFNGEQMFDVKEAIDTKNSQLDSKLFEYFKEKAFPYLSTKHLGVFPDHVIDMFINGYRLSLTNHGPTPVKEGSKDPRGGIFDAVFTRGDQSKLLTSRHDFKEKNLKEISDLIKKELTEGKALGLSHTYANVRINHVINLWGADFDSNGNLKAIYVTDSDSNASIGMKKYFVGVNSAGKVAISAKEIEGDNIGAQVLGLFTLSTGQDIWNQTN
B7: PRT-81 (protein)
chain: MANQEIRYSEVTPSHVTSVWTKGVTPPADFTQGEDVFHAPYVANQGWYDITKTFNGKDNLLCGAATAGNMLHWWFDQNKEQIENYLKKHPEKQKIMFGDQELLDVRKVINTKDSQTNSALFNYFRDKAFPNLSARRLGVMPDLVLDMFINGYYLNLTKTQTTDVNRTYQTKDKRGGIFDAVFTRGDQSKLLTSRHDFKEKTLKEISDLIKQELTEGKALGLSHTYANVRINHVINLWGADFDSNGNLKAIYVTDSDSNASIGMKKYFVGVNSAGKVAISAKEITEDNIGAQVLGLFTLSTGKDQWNQTN
B8: PRT-82 (protein)
chain: MANQEIRYSEVTPSTITSVWTKGVTPPAQFIQNEDVFHAPYVANQGWYDITKTFNGKDDLLCGAATAGNMLHWWFDQNKEEIEAYLKKHPEKQKIMFGDQELLDVRKVINTKDDQTNSALFNYFKDKAFPNLSARRLGVMPDLVLDMFINGYYLNVGKTQTTDVNRTYQNKDRRGGIFDAVFTRGDQSKLLTARHDFKEKNLNEISDLIKQELTEGKALALSHTYANVSINHVINLWGADFDANGNLEAIYVTDSDSNASIGMKKYFVGVNSAGKVAISAKEIEEDNIGAQVLGLFTLSTGQDIWNKTN
B9: PRT-83 (protein)
chain: MANQEIRYSEETPYHVTSVWTKGVTPPEKFTQGEDVFHAPYVANQGWYDITKTFNGKDDLLCGAATAGNMLHWWFDQNKDQIEAYLSKHPEKQKIMFGDQELLDVRKAINTKDSQTNSELFNYFRDKAFPNLSARRLGVMPDLVLDMFINGYRLNVTKTQTTDVNETYQEKDKRGGIFDAVFTRGDQSKLLTSRHDFKEKTLNEISDLIKKELTEGKALGISHTYANVRINHVINLWGADFNSEGNLEAIYVTDSDSNASIGMKKYFVGVNSAGKVAISAKEIEEENIGAQVLGLFTLSTGQDIWQQTN
B10: PRT-7 (protein)
chain: B6 chain with V11E, E80D, E88K, N113D, L116T, E282K, G283E, N304E
B11: PRT-8 (protein)
chain: B6 chain with A28T, V42I, E80D, I145L, K209Q, K246E, E282K, G283D
B12: PRT-9 (protein)
chain: B6 chain with V11E, N199T, G218A, E282K, G283E, T298S
B13: PRT-111 (protein)
chain: MRNATEAYAKEVPHQITSVWTKGVTPPTPEQFRYNNEDVFHAPYLAHQGWYDITKTFNGKDNLLCGAATAGNMLHWWFDQNKTEIEAYLKKHPEKQKIIFNNQELFDLKAAIDTKDSQTNSQLFNYFRDKAFPNLSARQLGVMPDLVLDMFINGYYLNVFKTQSTDVNRPYQDKDKRGGIFDAVFTRGDQTTLLTNRHDLKNKGLNDISTLIKQELTEGKALALSHTYANVSISHVINLWGADFNAEGNLEAIYVTDSDANASIGMKKYFVGINSAGHVAISAKKIEGENIGAQVLGLFTLSSGKDIWQKLS
B14: PRT-112 (protein)
chain: MRNATEAYAKEVPHKITSVWTKGVTPLTPEQFRYNGEDVIHAPYLANQGWYDITKTFDGKDNLLCGAATAGNMLHWWFDQNKTEIEAYLKKHPEKQKIIFNNQELFDLKAAIDTKDSQTNSALFNYFKDKAFPNLSARQLGVMPDHVLDMFINGYYLNVFKTQSTDVNRPYQDKDKRGGIFDAVFTRGDQTKLLTARHDLKNKGLNEISTLIKQELTEGKALALSHTYANVSISHVINLWGADFNAEGNLEAIYVTDSDANASIGMKKYFVGVNASGKVAISAKKIEGENIGAQVLGLFTLSSGKDIWQKLS

What follows are proteins tested against pooled human IgG.

| Protein | Enzyme Activity Endpoint Assay (purified): Fab′2 | Enzyme Activity Endpoint Assay (purified): Fc | Enzyme Activity Endpoint Assay (purified): IgG | Enzyme Activity Endpoint Assay (purified): scIgG | Enzyme Activity Endpoint Assay: Fab′2 | Enzyme Activity Endpoint Assay: Fc | Enzyme Activity Endpoint Assay: IgG | Enzyme Activity Endpoint Assay: scIgG | Enzyme Activity Endpoint Assay (purified): Fab'2 |
| --- | --- | --- | --- | --- | --- | --- | --- | --- | --- |
| B1 | 20 ng/µL | 78 ng/µL | 37 ng/µL | 38 ng/µL |  |  |  |  |  |
| B2 | 33 ng/µL | 104 ng/µL | 14 ng/µL | 17 ng/µL |  |  |  |  |  |
| B3 | 34 ng/µL | 94 ng/µL | 21 ng/µL | 11 ng/µL |  |  |  |  |  |
| B4 | 0 ng/µL | 44 ng/µL | 72 ng/µL | 38 ng/µL |  |  |  |  |  |
| B5 | 15 ng/µL | 70 ng/µL | 29 ng/µL | 34 ng/µL |  |  |  |  |  |
| B6 |  |  |  |  | 49 ng/µL | 129 ng/µL | 16 ng/µL | 15 ng/µL |  |
| B7 | 14 ng/µL | 67 ng/µL | 30 ng/µL | 56 ng/µL |  |  |  |  |  |
| B8 | 9 ng/µL | 67 ng/µL | 15 ng/µL | 60 ng/µL |  |  |  |  |  |
| B9 | 0 ng/µL | 44 ng/µL | 42 ng/µL | 40 ng/µL |  |  |  |  |  |
| B10 |  |  |  |  | 50 ng/µL | 137 ng/µL | 18 ng/µL | 16 ng/µL |  |
| B11 |  |  |  |  | 50 ng/µL | 127 ng/µL | 16 ng/µL | 16 ng/µL |  |
| B12 |  |  |  |  | 39 ng/µL | 103 ng/µL | 21 ng/µL | 32 ng/µL |  |
| B13 |  | 133 ng/µL | 26 ng/µL | 0 ng/µL |  |  |  |  | 328 ng/µL |
| B14 |  | 152 ng/µL | 15 ng/µL | 0 ng/µL |  |  |  |  | 435 ng/µL |
